B1: Nuclear receptor subfamily 4 group A member 2, residues 260 to 336; numbered along this chain, P43354 (parent)
chain: EGLCAVCGDNAACQHYGVRTCEGCKGFFKRTVQKNAKYVCLANKNCPVDKRRRNRCQYCRFQKCLAVGMVKEVVRTD
B2: Ankyrin repeat and SAM domain-containing protein 6, residues 774 to 836; numbered along this chain, Q68DC2 (parent)
chain: DEDELTGILKKLSLEKYQPIFEEQEVDMEAFLTLTDGDLKELGIKTDGSRQQILAAISELNAG

Variants of: B1
Test: abundance fitness (aPCA) (normalised: wild type 0, dead -1); higher = more abundant; growth selection in yeast, the domain comes from the species named
Conditions: Homo sapiens

Abundance fitness: each site, then its substitutions
L3: F -0.026 | V -0.054
D9: W -0.058 | G 0.05
C4: R -0.47
A5: R -0.026 | L 0.219
G2: S -0.075 | V -0.191
C13: I -0.298 | H 0.136 | A 0.1 | K 0.099 | F 0.116 | D -0.022 | E 0.03 | G 0.057
G8: M -0.019 | L 0.457 | D -0.459

Variants of: B2
Test: as above
Conditions: Homo sapiens

Abundance fitness: each site, then its substitutions
G63: S -0.069 | A -0.007 | R 0.073 | D -0.278 | E -0.2 | C -0.111 | W -0.464 | H -0.216 | T -0.105 | N -0.266 | F -0.532 | I -0.161 | P -0.052 | V -0.135 | K -0.166
L54: S -0.234 | W -0.813 | T -0.312 | R -0.337 | Y -0.634 | V -0.252
A62: Q -0.121 | E 0.035 | M -0.2 | C -0.017 | D 0.031 | T -0.161 | S -0.09 | F -0.345 | R -0.048 | L -0.178 | G 0.011 | K -0.25 | I -0.325 | N -0.07 | P -0.294 | W -0.475 | H -0.074 | V -0.117
E59: H 0.047 | K 0.02 | M -0.169 | A 0 | Q -0.097 | D -0.078 | C -0.272 | N -0.212 | T -0.106 | V -0.267 | S -0.113 | P -0.614 | W -0.35 | I -0.505 | Y 0.02
N61: D -0.297 | T -0.001 | I -0.449 | L -0.299 | G -0.186 | C -0.314 | P -0.461 | R 0.007 | W -0.531 | H -0.007 | Y -0.345 | K 0.071 | Q -0.127 | S -0.173 | A -0.148 | M -0.333
A56: E 0.004 | N -0.385 | C 0.007 | Y -0.109 | W -0.708 | G 0.009 | L -0.17 | P -0.377 | D -0.183 | H -0.147 | T -0.113 | V -0.133 | F -0.246 | K -0.202 | I -0.486 | S -0.157 | M -0.227
S58: Q -0.198 | I -0.533 | N 0.118 | G 0.034 | H -0.114 | M -0.205 | A 0.045 | R 0.022 | K 0.157 | Y -0.466 | F -0.434 | T -0.064
L60: Y 0.048 | A -0.147 | C 0.033 | G -0.301 | S -0.466 | M -0.054 | N -0.286 | I -0.073 | D -0.359 | W 0.031 | R -0.108 | F -0.04 | K -0.508 | V -0.03 | P -0.636
A55: C 0.046 | V -0.301 | K 0.112 | P -0.528 | I -0.203 | W -0.386 | N 0.014 | M -0.21 | L -0.159 | G 0.105 | T 0.063 | Y -0.128 | Q -0.022 | S 0.043 | R 0.108 | F -0.256 | E 0.031
I57: N -0.437 | H -0.254 | C -0.277 | K -0.349 | A -0.248 | G -0.37 | Y -0.696 | F -0.675 | M -0.539 | T -0.221 | V -0.206 | E -0.414 | Q -0.116 | S -0.282 | W -0.675 | L -0.257

Reference: the Human Domainome abundance scans (Beltran et al. 2025)
